Among the data in patent publication US20140335016A1 are filter trap assay, concentration that reduces aggregates to a similar level values, retold here.

The target of this assay is amyloid-β 1-42 fibers (fAβ42) (human) (UniProt P05067). Description: cell-based or functional assay.
Chain of amyloid-β 1-42 fibers (fAβ42) (human) (P05067 672-713 limits assumed): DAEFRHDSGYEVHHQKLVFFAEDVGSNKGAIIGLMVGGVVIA

“M13 filamentous bacteriophage, Construct 2 (wild type M13 isolate, GenBank JX412914.1)”: the filter trap assay, concentration that reduces aggregates to a similar level came to 1.7 nM.
